For data set [1], the system named is T1, CCn1c(=NN=c2sc3cc(S(=O)(=O)O)ccc3n2CC)sc2cc(S(=O)(=O)O)ccc21.
T1 construct: mature HRP C1A without plant leader; E. coli BL21(DE3) periplasm, non-glycosylated, IMAC purified; hemin and CaCl2 added
Nature of the data set: purified protein. The format is biochemical, Armoracia rusticana.

Substrate in the data set “purified protein”: CCn1c(=NN=c2sc3cc(S(=O)(=O)O)ccc3n2CC)sc2cc(S(=O)(=O)O)ccc21
Nature of the data set: purified protein. The format is biochemical, Armoracia rusticana. Particulars: 1 mM H2O2, 50 mM KH2PO4 pH 5, 30 °C.

Where [2] appears, read: 1 mM H2O2, 50 mM BisTris/HCl pH 7, 7% glycerol, 100 mM NaCl, 30 °C.
The mark [3] stands for this setting: 1 mM H2O2, 50 mM KH2PO4 pH 5, 30 °C.

A word on the Km: it is the concentration of substrate that gives half-maximal velocity. Usually Vmax stands for the top rate of the reaction or transport when substrate is in excess. The term kcat denotes the maximal rate divided by the concentration of active sites. As usually defined, the kcat/Km is the turnover number divided by the Michaelis constant. As for “Benchmark rHRP (HRP variant C1A) (Armoracia rusticana; N43D)”, in data set [1] (setting [2]), the Km is listed as 3.29 ± 0.33 mM, the Vmax is 52.8 µM/min, the kcat was determined as 1.04 ± 0.05 s⁻¹ and the kcat/Km was determined as 320 ± 40 M⁻¹ s⁻¹.
For the molecule “Benchmark rHRP (HRP variant C1A) (Armoracia rusticana; N87S)”, in data set [1] (setting [2]), the Km came to 3.22 ± 0.59 mM, the Vmax turned out to be 162 µM/min, the kcat was 2.1 ± 0.19 s⁻¹ and the kcat/Km worked out at 640 ± 130 M⁻¹ s⁻¹.
Turning to “Benchmark rHRP (HRP variant C1A) (Armoracia rusticana; N285D)”, in data set [1] (setting [2]), the Km is given as 4.37 ± 0.86 mM, the maximal velocity (Vmax) turned out to be 53.4 µM/min, the catalytic constant (kcat) was found to be 1.1 ± 0.12 s⁻¹ and the kcat/Km came out at 240 ± 50 M⁻¹ s⁻¹.
For the molecule “Benchmark rHRP (HRP variant C1A) (Armoracia rusticana; N285D/N298D/N43D/N87S)”, in data set [1] (setting [3]), the Km was 0.45 ± 0.12 mM, the Vmax was found to be 1080 µM/min, the kcat was determined as 17.4 ± 1.01 s⁻¹ and the kcat/Km worked out at 39100 ± 10500 M⁻¹ s⁻¹.
For “Benchmark rHRP (HRP variant C1A) (Armoracia rusticana; N285D/N298D/N87S)”, in data set [1] (setting [2]), the Km is listed as 9.52 ± 6.89 mM, the Vmax was found to be 240 µM/min, the kcat worked out at 4.81 ± 2.37 s⁻¹ and the kcat/Km amounted to 510 ± 440 M⁻¹ s⁻¹.
The matching figures for “Benchmark rHRP (HRP variant C1A) (Armoracia rusticana; N298D)”: 7.85 ± 4.98 mM, 144 µM/min, 3 ± 1.25 s⁻¹ and 380 ± 290 M⁻¹ s⁻¹.
The like results for “Benchmark rHRP (HRP variant C1A) (Armoracia rusticana; N298D/N87S)” were, in that order, 4.18 ± 3.55 mM, 60 µM/min, 1.5 ± 0.58 s⁻¹ and 360 ± 340 M⁻¹ s⁻¹.

B1: Benchmark rHRP (HRP variant C1A) (Armoracia rusticana) (protein)
chain: QLTPTFYDNSCPNVSNIVRDTIVNELRSDPRIAASILRLHFHDCFVNGCDASILLDNTTSFRTEKDAFGNANSARGFPVIDRMKAAVESACPRTVSCADLLTIAAQQSVTLAGGPSWRVPLGRRDSLQAFLDLANANLPAPFFTLPQLKDSFRNVGLNRSSDLVALSGGHTFGKNQCRFIMDRLYNFSNTGLPDPTLNTTYLQTLRGLCPLNGNLSALVDFDLRTPTIFDNKYYVNLEEQKGLIQSDQELFSSPNATDTIPLVRSFANSTQTFFNAFVEAMDRMGNITPLTGTQGQIRLNCRVVNSNS
notes: mature HRP C1A without plant leader; E. coli BL21(DE3) periplasm, non-glycosylated, IMAC purified; hemin and CaCl2 added
On to B1, for which, in the data set “purified protein”, the Km is 0.44 ± 0.10 mM, the maximum rate (Vmax) was 120 µM/min, the kcat is 2.24 ± 0.11 s⁻¹ and the kcat/Km is 5070 ± 1160 M⁻¹ s⁻¹.

The record behind these values is PMC6412888, “Improving the Performance of Horseradish Peroxidase by Site-Directed Mutagenesis” (International Journal of Molecular Sciences, 2019).
